The supplement of paper PMC11316812
± gives the standard deviation of the averaged measurements.

What was measured:
MCF7 = experiment: percentage of EdU-negative (G0-arrested) nuclei per well, 72 h; higher = more G0 arrest; settings: reference: sequence is the full UniProt precursor, the tested protein was the secreted form or ectodomain
hTERT-HMEC = experiment: as above; settings: reference: sequence is the full UniProt precursor, the tested protein was the secreted form or ectodomain
[1] = protein concentration 0.0225 µM
[2] = protein concentration 0.03125 µM
[3] = protein concentration 0.3125 µM
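Also: secreted proteins added to cultured cells, EdU pulse at the end, nuclei found by Hoechst imaging, EdU status from nuclear versus surrounding ring intensity ratio, PBS as neutral control.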

| Sequence | percentage of EdU-negative (MCF7; [1]) [%] | percentage of EdU-negative (MCF7; protein concentration 0.225 µM) [%] | percentage of EdU-negative (hTERT-HMEC; [1]) [%] | percentage of EdU-negative (hTERT-HMEC; protein concentration 0.225 µM) [%] | further results |
| --- | --- | --- | --- | --- | --- |
| MVATKTFALLLLSLFLAVGLGEKKEGHFSALPSLPVGSHAKVSSPQPRGPRYAEGTFISDYSIAMDKIHQQDFVNWLLAQKGKKNDWKHNITQREARALELASQANRKEEEAVEPQSSPAKNPSDEDLLRDLLIQELLACLLDQTNLCRLRSR | 26.1 ± 1.5 | 24.3 ± 2.4 | 4.89 ± 0.063 | 6.12 ± 0.68 |  |
| MVDGVMILPVLIMIALPSPSMEDEKPKVNPKLYMCVCEGLSCGNEDHCEGQQCFSSLSINDGFHVYQKGCFQVYEQGKMTCKTPPSPGQAVECCQGDWCNRNITAQLPTKGKSFPGTQNFHLEVGLIILSVVFAVCLLACLLGVALRKFKRRNQERLNPRDVEYGTIEGLITTNVGDSTLADLLDHSCTSGSGSGLPFLVQRTVARQITLLECVGKGRYGEVWRGSWQGENVAVKIFSSRDEKSWFRETELYNTVMLRHENILGFIASDMTSRHSSTQLWLITHYHEMGSLYDYLQLTTLDTVSCLRIVLSIASGLAHLHIEIFGTQGKPAIAHRDLKSKNILVKKNGQCCIADLGLAVMHSQSTNQLDVGNNPRVGTKRYMAPEVLDETIQVDCFDSYKRVDIWAFGLVLWEVARRMVSNGIVEDYKPPFYDVVPNDPSFEDMRKVVCVDQQRPNIPNRWFSDPTLTSLAKLMKECWYQNPSARLTALRIKKTLTKIDNSLDKLKTDC | 26.7 ± 0.75 | 27.2 ± 0.41 | 5.41 ± 0.37 | 5.41 ± 1.3 |  |
| MVFLPLKWSLATMSFLLSSLLALLTVSTPSWCQSTEASPKRSDGTPFPWNKIRLPEYVIPVHYDLLIHANLTTLTFWGTTKVEITASQPTSTIILHSHHLQISRATLRKGAGERLSEEPLQVLEHPRQEQIALLAPEPLLVGLPYTVVIHYAGNLSETFHGFYKSTYRTKEGELRILASTQFEPTAARMAFPCFDEPAFKASFSIKIRREPRHLAISNMPLVKSVTVAEGLIEDHFDVTVKMSTYLVAFIISDFESVSKITKSGVKVSVYAVPDKINQADYALDAAVTLLEFYEDYFSIPYPLPKQDLAAIPDFQSGAMENWGLTTYRESALLFDAEKSSASSKLGITMTVAHELAHQWFGNLVTMEWWNDLWLNEGFAKFMEFVSVSVTHPELKVGDYFFGKCFDAMEVDALNSSHPVSTPVENPAQIREMFDDVSYDKGACILNMLREYLSADAFKSGIVQYLQKHSYKNTKNEDLWDSMASICPTDGVKGMDGFCSRSQHSSSSSHWHQEGVDVKTMMNTWTLQKGFPLITITVRGRNVHMKQEHYMKGSDGAPDTGYLWHVPLTFITSKSDMVHRFLLKTKTDVLILPEEVEWIKFNVGMNGYYIVHYEDDGWDSLTGLLKGTHTAVSSNDRASLINNAFQLVSIGKLSIEKALDLSLYLKHETEIMPVFQGLNELIPMYKLMEKRDMNEVETQFKAFLIRLLRDLIDKQTWTDEGSVSERMLRSQLLLLACVHNYQPCVQRAEGYFRKWKESNGNLSLPVDVTLAVFAVGAQSTEGWDFLYSKYQFSLSSTEKSQIEFALCRTQNKEKLQWLLDESFKGDKIKTQEFPQILTLIGRNPVGYPLAWQFLRKNWNKLVQKFELGSSSIAHMVMGTTNQFSTRTRLEEVKGFFSSLKENGSQLRCVQQTIETIEENIGWMDKNFDKIRVWLQSEKLERM [Q9NZ08] | 28.5 ± 2.6 | 25.9 ± 1.9 | 5.43 ± 0.72 | 9.42 ± 1.9 |  |
| MVGAMWKVIVSLVLLMPGPCDGLFRSLYRSVSMPPKGDSGQPLFLTPYIEAGKIQKGRELSLVGPFPGLNMKSYAGFLTVNKTYNSNLFFWFFPAQIQPEDAPVVLWLQGGPGGSSMFGLFVEHGPYVVTSNMTLRDRDFPWTTTLSMLYIDNPVGTGFSFTDDTHGYAVNEDDVARDLYSALIQFFQIFPEYKNNDFYVTGESYAGKYVPAIAHLIHSLNPVREVKINLNGIAIGDGYSDPESIIGGYAEFLYQIGLLDEKQKKYFQKQCHECIEHIRKQNWFEAFEILDKLLDGDLTSDPSYFQNVTGCSNYYNFLRCTEPEDQLYYVKFLSLPEVRQAIHVGNQTFNDGTIVEKYLREDTVQSVKPWLTEIMNNYKVLIYNGQLDIIVAAALTERSLMGMDWKGSQEYKKAEKKVWKIFKSDSEVAGYIRQAGDFHQVIIRGGGHILPYDQPLRAFDMINRFIYGKGWDPYVG [Q9H3G5] |  |  |  |  | percentage of EdU-negative (MCF7; protein concentration 0.014 µM): 26.1 ± 4.2%; percentage of EdU-negative (MCF7; protein concentration 0.14 µM): 29.1 ± 0.47%; percentage of EdU-negative (hTERT-HMEC; protein concentration 0.014 µM): 5.19 ± 0.19%; percentage of EdU-negative (hTERT-HMEC; protein concentration 0.14 µM): 6.64 ± 0.14% |
| MVGKLKQNLLLACLVISSVTVFYLGQHAMECHHRIEERSQPVKLESTRTTVRTGLDLKANKTFAYHKDMPLIFIGGVPRSGTTLMRAMLDAHPDIRCGEETRVIPRILALKQMWSRSSKEKIRLDEAGVTDEVLDSAMQAFLLEIIVKHGEPAPYLCNKDPFALKSLTYLSRLFPNAKFLLMVRDGRASVHSMISRKVTIAGFDLNSYRDCLTKWNRAIETMYNQCMEVGYKKCMLVHYEQLVLHPERWMRTLLKFLQIPWNHSVLHHEEMIGKAGGVSLSKVERSTDQVIKPVNVGALSKWVGKIPPDVLQDMAVIAPMLAKLGYDPYANPPNYGKPDPKIIENTRRVYKGEFQLPDFLKEKPQTEQVE | 26.5 ± 0.46 | 25.4 ± 1.6 | 4.95 ± 1.4 | 7.95 ± 0.61 |  |
| MVGKMWPVLWTLCAVRVTVDAISVETPQDVLRASQGKSVTLPCTYHTSTSSREGLIQWDKLLLTHTERVVIWPFSNKNYIHGELYKNRVSISNNAEQSDASITIDQLTMADNGTYECSVSLMSDLEGNTKSRVRLLVLVPPSKPECGIEGETIIGNNIQLTCQSKEGSPTPQYSWKRYNILNQEQPLAQPASGQPVSLKNISTDTSGYYICTSSNEEGTQFCNITVAVRSPSMNVALYVGIAVGVVAALIIIGIIIYCCCCRGKDDNTEDKEDARPNREAYEEPPEQLRELSREREEEDDYRQEEQRSTGRESPDHLDQ | 26.33 ± 0.14 | 28.18 ± 0.27 | 4.72 ± 0.17 | 5.86 ± 0.41 |  |
| MVGPAPRRRLRPLAALALVLALAPGLPTARAGQTPRPAERGPPVRLFTEEELARYGGEEEDQPIYLAVKGVVFDVTSGKEFYGRGAPYNALTGKDSTRGVAKMSLDPADLTHDTTGLTAKELEALDEVFTKVYKAKYPIVGYTARRILNEDGSPNLDFKPEDQPHFDIKDEF [Q9UMX5] |  |  |  |  | percentage of EdU-negative (MCF7; [2]): 22.8 ± 0.65%; percentage of EdU-negative (MCF7; [3]): 23.5 ± 1.4%; percentage of EdU-negative (hTERT-HMEC; [2]): 4.98 ± 0.59%; percentage of EdU-negative (hTERT-HMEC; [3]): 6.64 ± 2.3% |
